Data reported in US20150344570A1 (published 2015).

T1: FcγRIIa R (FcγRIIa, allotype with Arg at position 131), extracellular domain with C-terminal His tag (human, UniProt P12318 34-217)
T1 construct: extracellular domain; also called FcγRIIa R type; 2aR
T1 sequence (looked up): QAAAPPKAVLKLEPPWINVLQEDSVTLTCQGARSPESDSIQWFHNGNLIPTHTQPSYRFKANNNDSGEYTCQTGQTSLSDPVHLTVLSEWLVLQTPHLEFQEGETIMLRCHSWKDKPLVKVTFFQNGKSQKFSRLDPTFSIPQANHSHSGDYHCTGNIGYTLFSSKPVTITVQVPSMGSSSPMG


Biological target: T1, FcγRIIa R (FcγRIIa, allotype with Arg …)
Experiment: SPR (Biacore), antibody captured on antigen peptide chip, FcγR as analyte; relative binding
Description: Analysis of interaction between objective antibody and the FcγR was carried out using Biacore T100 (GE Healthcare). HBS-EP+ (GE Healthcare) was used as the running buffer, and the measurement temperature was set to 25° C. Chips produced by immobilizing the antigen peptide by the amine coupling method to a Series S Sencor Chip CM5 (GE Healthcare), or alternatively, chips produced by allowing preliminarily biotinylated antigen peptides to interact with and immobilize onto a Series S Sensor Chip SA (certified) (GE Healthcare) were used. Antibodies of interest were captured onto an antigen peptide-immobilized chip, and allowed to interact to each FcγR diluted with running buffer. To regenerate and repeatedly use the chip, the antibodies captured on the chip were washed off by reacting 10 mM glycine-HCl, pH 1.5.

Binder | Ho/Con_2aR
GpH7-B3 variant S324_06M/GpL16-k0 (antibody, human IgG1, kappa, also called Ho Ab) heavy: not shown light: DIVMTQSPLSLPVTPGEPASISCQASESLVHSNRNTYLHWYLQKPGQSPQLLIYKVSNRFSGVPDRFSGSGSGTDFTLKISRVEAEDVGVYYCSQNTHVPPTFGQGTKVEIERTVAAPSVFIFPPSDEQLKSGTASVVCLLNNFYPREAKVQWKVDNALQSGNSQESVTEQDSKDSTYSLSSTLTLSKADYEKHKVYACEVTHQGLSSPVTKSFNRGEC | 118 % of GpH7-B3/GpL16-k0 (=100)
GpH7-B3 variant S337_18N/GpL16-k0 (antibody, human IgG1, kappa, also called Ho Ab) heavy: not shown light: DIVMTQSPLSLPVTPGEPASISCQASESLVHSNRNTYLHWYLQKPGQSPQLLIYKVSNRFSGVPDRFSGSGSGTDFTLKISRVEAEDVGVYYCSQNTHVPPTFGQGTKVEIERTVAAPSVFIFPPSDEQLKSGTASVVCLLNNFYPREAKVQWKVDNALQSGNSQESVTEQDSKDSTYSLSSTLTLSKADYEKHKVYACEVTHQGLSSPVTKSFNRGEC | 103 % of GpH7-B3/GpL16-k0 (=100)
GpH7-B3 variant S337_09D/GpL16-k0 (antibody, human IgG1, kappa, also called Ho Ab) heavy: not shown light: DIVMTQSPLSLPVTPGEPASISCQASESLVHSNRNTYLHWYLQKPGQSPQLLIYKVSNRFSGVPDRFSGSGSGTDFTLKISRVEAEDVGVYYCSQNTHVPPTFGQGTKVEIERTVAAPSVFIFPPSDEQLKSGTASVVCLLNNFYPREAKVQWKVDNALQSGNSQESVTEQDSKDSTYSLSSTLTLSKADYEKHKVYACEVTHQGLSSPVTKSFNRGEC | 114 % of GpH7-B3/GpL16-k0 (=100)
GpH7-B3 variant S337_07I/GpL16-k0 (antibody, human IgG1, kappa, also called Ho Ab) heavy: not shown light: DIVMTQSPLSLPVTPGEPASISCQASESLVHSNRNTYLHWYLQKPGQSPQLLIYKVSNRFSGVPDRFSGSGSGTDFTLKISRVEAEDVGVYYCSQNTHVPPTFGQGTKVEIERTVAAPSVFIFPPSDEQLKSGTASVVCLLNNFYPREAKVQWKVDNALQSGNSQESVTEQDSKDSTYSLSSTLTLSKADYEKHKVYACEVTHQGLSSPVTKSFNRGEC | 103 % of GpH7-B3/GpL16-k0 (=100)
GpH7-B3 variant S337_08L/GpL16-k0 (antibody, human IgG1, kappa, also called Ho Ab) heavy: not shown light: DIVMTQSPLSLPVTPGEPASISCQASESLVHSNRNTYLHWYLQKPGQSPQLLIYKVSNRFSGVPDRFSGSGSGTDFTLKISRVEAEDVGVYYCSQNTHVPPTFGQGTKVEIERTVAAPSVFIFPPSDEQLKSGTASVVCLLNNFYPREAKVQWKVDNALQSGNSQESVTEQDSKDSTYSLSSTLTLSKADYEKHKVYACEVTHQGLSSPVTKSFNRGEC | 99.4 % of GpH7-B3/GpL16-k0 (=100)
GpH7-B3 variant S337_06M/GpL16-k0 (antibody, human IgG1, kappa, also called Ho Ab) heavy: not shown light: DIVMTQSPLSLPVTPGEPASISCQASESLVHSNRNTYLHWYLQKPGQSPQLLIYKVSNRFSGVPDRFSGSGSGTDFTLKISRVEAEDVGVYYCSQNTHVPPTFGQGTKVEIERTVAAPSVFIFPPSDEQLKSGTASVVCLLNNFYPREAKVQWKVDNALQSGNSQESVTEQDSKDSTYSLSSTLTLSKADYEKHKVYACEVTHQGLSSPVTKSFNRGEC | 101 % of GpH7-B3/GpL16-k0 (=100)
GpH7-B3 variant S337_11K/GpL16-k0 (antibody, human IgG1, kappa, also called Ho Ab) heavy: not shown light: DIVMTQSPLSLPVTPGEPASISCQASESLVHSNRNTYLHWYLQKPGQSPQLLIYKVSNRFSGVPDRFSGSGSGTDFTLKISRVEAEDVGVYYCSQNTHVPPTFGQGTKVEIERTVAAPSVFIFPPSDEQLKSGTASVVCLLNNFYPREAKVQWKVDNALQSGNSQESVTEQDSKDSTYSLSSTLTLSKADYEKHKVYACEVTHQGLSSPVTKSFNRGEC | 94.6 % of GpH7-B3/GpL16-k0 (=100)
GpH7-B3 variant S337_15Y/GpL16-k0 (antibody, human IgG1, kappa, also called Ho Ab) heavy: not shown light: DIVMTQSPLSLPVTPGEPASISCQASESLVHSNRNTYLHWYLQKPGQSPQLLIYKVSNRFSGVPDRFSGSGSGTDFTLKISRVEAEDVGVYYCSQNTHVPPTFGQGTKVEIERTVAAPSVFIFPPSDEQLKSGTASVVCLLNNFYPREAKVQWKVDNALQSGNSQESVTEQDSKDSTYSLSSTLTLSKADYEKHKVYACEVTHQGLSSPVTKSFNRGEC | 100 % of GpH7-B3/GpL16-k0 (=100)
GpH7-B3 variant S337_10E/GpL16-k0 (antibody, human IgG1, kappa, also called Ho Ab) heavy: not shown light: DIVMTQSPLSLPVTPGEPASISCQASESLVHSNRNTYLHWYLQKPGQSPQLLIYKVSNRFSGVPDRFSGSGSGTDFTLKISRVEAEDVGVYYCSQNTHVPPTFGQGTKVEIERTVAAPSVFIFPPSDEQLKSGTASVVCLLNNFYPREAKVQWKVDNALQSGNSQESVTEQDSKDSTYSLSSTLTLSKADYEKHKVYACEVTHQGLSSPVTKSFNRGEC | 110 % of GpH7-B3/GpL16-k0 (=100)
GpH7-B3 variant S337_16H/GpL16-k0 (antibody, human IgG1, kappa, also called Ho Ab) heavy: not shown light: DIVMTQSPLSLPVTPGEPASISCQASESLVHSNRNTYLHWYLQKPGQSPQLLIYKVSNRFSGVPDRFSGSGSGTDFTLKISRVEAEDVGVYYCSQNTHVPPTFGQGTKVEIERTVAAPSVFIFPPSDEQLKSGTASVVCLLNNFYPREAKVQWKVDNALQSGNSQESVTEQDSKDSTYSLSSTLTLSKADYEKHKVYACEVTHQGLSSPVTKSFNRGEC | 107 % of GpH7-B3/GpL16-k0 (=100)
GpH7-B3 variant S337_20W/GpL16-k0 (antibody, human IgG1, kappa, also called Ho Ab) heavy: not shown light: DIVMTQSPLSLPVTPGEPASISCQASESLVHSNRNTYLHWYLQKPGQSPQLLIYKVSNRFSGVPDRFSGSGSGTDFTLKISRVEAEDVGVYYCSQNTHVPPTFGQGTKVEIERTVAAPSVFIFPPSDEQLKSGTASVVCLLNNFYPREAKVQWKVDNALQSGNSQESVTEQDSKDSTYSLSSTLTLSKADYEKHKVYACEVTHQGLSSPVTKSFNRGEC | 105 % of GpH7-B3/GpL16-k0 (=100)
GpH7-B3 variant S337_03V/GpL16-k0 (antibody, human IgG1, kappa, also called Ho Ab) heavy: not shown light: DIVMTQSPLSLPVTPGEPASISCQASESLVHSNRNTYLHWYLQKPGQSPQLLIYKVSNRFSGVPDRFSGSGSGTDFTLKISRVEAEDVGVYYCSQNTHVPPTFGQGTKVEIERTVAAPSVFIFPPSDEQLKSGTASVVCLLNNFYPREAKVQWKVDNALQSGNSQESVTEQDSKDSTYSLSSTLTLSKADYEKHKVYACEVTHQGLSSPVTKSFNRGEC | 102 % of GpH7-B3/GpL16-k0 (=100)
GpH7-B3 variant S337_04F/GpL16-k0 (antibody, human IgG1, kappa, also called Ho Ab) heavy: not shown light: DIVMTQSPLSLPVTPGEPASISCQASESLVHSNRNTYLHWYLQKPGQSPQLLIYKVSNRFSGVPDRFSGSGSGTDFTLKISRVEAEDVGVYYCSQNTHVPPTFGQGTKVEIERTVAAPSVFIFPPSDEQLKSGTASVVCLLNNFYPREAKVQWKVDNALQSGNSQESVTEQDSKDSTYSLSSTLTLSKADYEKHKVYACEVTHQGLSSPVTKSFNRGEC | 98.3 % of GpH7-B3/GpL16-k0 (=100)
GpH7-B3 variant T335_01G/GpL16-k0 (antibody, human IgG1, kappa, also called Ho Ab) heavy: not shown light: DIVMTQSPLSLPVTPGEPASISCQASESLVHSNRNTYLHWYLQKPGQSPQLLIYKVSNRFSGVPDRFSGSGSGTDFTLKISRVEAEDVGVYYCSQNTHVPPTFGQGTKVEIERTVAAPSVFIFPPSDEQLKSGTASVVCLLNNFYPREAKVQWKVDNALQSGNSQESVTEQDSKDSTYSLSSTLTLSKADYEKHKVYACEVTHQGLSSPVTKSFNRGEC | 97.7 % of GpH7-B3/GpL16-k0 (=100)
GpH7-B3 variant S337_12R/GpL16-k0 (antibody, human IgG1, kappa, also called Ho Ab) heavy: not shown light: DIVMTQSPLSLPVTPGEPASISCQASESLVHSNRNTYLHWYLQKPGQSPQLLIYKVSNRFSGVPDRFSGSGSGTDFTLKISRVEAEDVGVYYCSQNTHVPPTFGQGTKVEIERTVAAPSVFIFPPSDEQLKSGTASVVCLLNNFYPREAKVQWKVDNALQSGNSQESVTEQDSKDSTYSLSSTLTLSKADYEKHKVYACEVTHQGLSSPVTKSFNRGEC | 100 % of GpH7-B3/GpL16-k0 (=100)
GpH7-B3 variant S337_19Q/GpL16-k0 (antibody, human IgG1, kappa, also called Ho Ab) heavy: not shown light: DIVMTQSPLSLPVTPGEPASISCQASESLVHSNRNTYLHWYLQKPGQSPQLLIYKVSNRFSGVPDRFSGSGSGTDFTLKISRVEAEDVGVYYCSQNTHVPPTFGQGTKVEIERTVAAPSVFIFPPSDEQLKSGTASVVCLLNNFYPREAKVQWKVDNALQSGNSQESVTEQDSKDSTYSLSSTLTLSKADYEKHKVYACEVTHQGLSSPVTKSFNRGEC | 102 % of GpH7-B3/GpL16-k0 (=100)
